Assay results reported in US20120237948A1 (SHIONOGI, published 2012).

Columns and labels:
Experiment in all cases: competitive ELISA against the biotin-labeled SEQ ID NO: 2 peptide
[1] = biological target: T1, MMP13-undigested human type I collagen (human, UniProt P02452 162-1218; P08123 80-1119)
T1 construct: The chain composition comes from general knowledge; also called non-digested collagen (type I)
Experimental: (§1) To 10 μg/10 μl of a solution of human type I, type II, or type III collagen (Chondrex), 10 μl of 2 × enzyme reaction buffer (50 mM Tris buffer, pH 7.6, containing 0.3 M NaCl, 10 mM CaCl₂, and 0.005% Brij35) was added for neutralization. To the solution, 0.2 μg of activated human MMP13 (human Pro-MMP13 (Calbiochem), activated by incubation with 1 mM APMA at 37° C. for 2 hours), and the mixture was allowed to react overnight at 37° C. Subsequently, stop solution (EDTA, final concentration 5 mM) was added to prepare the natural type neoepitope solution.
(§2) To a 384-well microtiter plate (Nunc), 35 μl of Tris buffer (50 mM Tris-HCl, pH7.5) containing 0.35 μg of anti-mouse IgG-Fc antibody (Jackson Immuno Research) was added and incubated overnight at 4° C. for adsorption. Each well was washed once with 90 μl of washing solution (physiological saline containing 0.01% Tween20), and then 0.1 ml of Block Ace (Dainippon pharmaceuticals) was added. The plate was allowed to stand for 2 hours at room temperature for blocking (an anti-mouse IgG antibody-solid-phased plate). After each well was washed once with 90 μl of the washing solution, 10 μl of buffer A containing 6.4-250 nM of the natural type neoepitope solution was mixed with 10 μl of buffer A containing 1 ng/ml of the biotin-labeled neoepitope peptide (SEQ ID NO: 2) and 200 ng/ml of Streptavidin-HRP, and 10 μl of buffer A containing 15 ng/ml of the anti-neoepitope antibody (20A10). Then the mixture was allowed to react at 4° C. for 16 hours.
(§3) Subsequently, each well was washed three times with 90 μl of the washing solution, and 25 μl of TMB-Substrate Chromogen (DAKO) was added and incubated for 30 minutes at room temperature for color development, followed by the addition of 25 μl of 0.05 M sulfuric acid to terminate the reaction. Then, the absorbance at 450 nm was measured.

[2] = biological target: T2, MMP13-undigested human type II collagen (human, UniProt P02458 182-1241, limits assumed)
T2 construct: Triple helix of three chains; also called native type II collagen; non-digested collagen (type II)
Experimental: as §1, §2, §3

[3] = biological target: T3, MMP13-undigested human type III collagen (human, UniProt P02461 154-1221)
T3 construct: also called non-digested collagen (type III)
T3 sequence (looked up): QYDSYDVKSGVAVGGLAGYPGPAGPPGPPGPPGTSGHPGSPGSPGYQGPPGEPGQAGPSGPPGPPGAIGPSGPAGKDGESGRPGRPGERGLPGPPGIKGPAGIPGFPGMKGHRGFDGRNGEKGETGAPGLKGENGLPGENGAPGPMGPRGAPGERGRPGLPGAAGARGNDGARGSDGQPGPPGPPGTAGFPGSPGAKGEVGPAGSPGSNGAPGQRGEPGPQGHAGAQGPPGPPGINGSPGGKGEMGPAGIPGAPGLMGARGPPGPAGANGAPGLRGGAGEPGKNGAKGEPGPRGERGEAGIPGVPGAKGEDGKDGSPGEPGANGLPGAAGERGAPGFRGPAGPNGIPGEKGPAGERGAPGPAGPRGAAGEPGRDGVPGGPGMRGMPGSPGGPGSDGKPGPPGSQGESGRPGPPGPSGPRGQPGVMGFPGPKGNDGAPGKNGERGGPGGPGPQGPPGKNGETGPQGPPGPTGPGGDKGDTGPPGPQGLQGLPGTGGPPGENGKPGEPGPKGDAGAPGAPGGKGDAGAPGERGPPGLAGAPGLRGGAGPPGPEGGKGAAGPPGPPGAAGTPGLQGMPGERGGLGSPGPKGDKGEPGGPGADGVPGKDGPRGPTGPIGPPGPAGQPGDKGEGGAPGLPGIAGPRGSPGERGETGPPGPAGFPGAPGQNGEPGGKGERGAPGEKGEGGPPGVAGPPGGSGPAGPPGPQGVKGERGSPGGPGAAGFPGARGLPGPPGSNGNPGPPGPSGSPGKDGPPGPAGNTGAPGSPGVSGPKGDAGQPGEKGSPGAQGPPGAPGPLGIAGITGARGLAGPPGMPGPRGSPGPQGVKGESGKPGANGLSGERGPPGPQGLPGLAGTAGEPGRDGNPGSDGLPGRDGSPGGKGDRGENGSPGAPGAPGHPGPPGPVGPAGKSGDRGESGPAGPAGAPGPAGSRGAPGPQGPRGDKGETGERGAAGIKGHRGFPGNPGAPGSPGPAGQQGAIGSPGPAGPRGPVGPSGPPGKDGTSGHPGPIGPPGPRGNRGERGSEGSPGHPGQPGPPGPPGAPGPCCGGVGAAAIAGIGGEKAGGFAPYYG
Experimental: as §1, §2, §3

T2 sequence (P02458 182-1241 limits assumed): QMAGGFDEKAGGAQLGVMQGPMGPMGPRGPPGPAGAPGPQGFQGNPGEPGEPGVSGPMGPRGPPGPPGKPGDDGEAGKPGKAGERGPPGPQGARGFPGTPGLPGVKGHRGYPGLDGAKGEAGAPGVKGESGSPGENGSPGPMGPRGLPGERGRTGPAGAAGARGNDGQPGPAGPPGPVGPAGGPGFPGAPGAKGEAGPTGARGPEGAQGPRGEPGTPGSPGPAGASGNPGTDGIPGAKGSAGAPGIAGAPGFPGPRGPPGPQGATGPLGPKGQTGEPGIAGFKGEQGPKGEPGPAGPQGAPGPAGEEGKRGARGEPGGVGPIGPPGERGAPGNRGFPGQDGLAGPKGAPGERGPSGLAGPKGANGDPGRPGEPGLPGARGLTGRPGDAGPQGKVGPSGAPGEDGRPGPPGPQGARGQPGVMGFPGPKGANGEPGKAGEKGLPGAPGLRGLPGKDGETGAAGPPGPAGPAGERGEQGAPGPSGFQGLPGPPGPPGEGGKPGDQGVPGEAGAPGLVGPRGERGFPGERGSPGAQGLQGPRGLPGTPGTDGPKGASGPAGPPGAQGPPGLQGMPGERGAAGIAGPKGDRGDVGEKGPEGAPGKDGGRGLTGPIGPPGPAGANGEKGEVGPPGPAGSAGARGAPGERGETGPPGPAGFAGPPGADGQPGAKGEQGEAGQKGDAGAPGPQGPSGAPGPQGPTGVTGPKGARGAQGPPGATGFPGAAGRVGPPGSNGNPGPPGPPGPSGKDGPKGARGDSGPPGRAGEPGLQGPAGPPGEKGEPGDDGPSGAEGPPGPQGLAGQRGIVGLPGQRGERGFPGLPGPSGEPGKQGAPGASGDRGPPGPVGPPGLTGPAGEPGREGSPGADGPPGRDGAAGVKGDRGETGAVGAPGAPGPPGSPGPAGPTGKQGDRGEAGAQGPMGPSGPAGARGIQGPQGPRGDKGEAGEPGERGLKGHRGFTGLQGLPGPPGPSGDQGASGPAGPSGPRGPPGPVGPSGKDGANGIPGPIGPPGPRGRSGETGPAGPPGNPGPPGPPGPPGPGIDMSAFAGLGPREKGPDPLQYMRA
T1 sequence (P02452 162-1218, chain 1 of 2): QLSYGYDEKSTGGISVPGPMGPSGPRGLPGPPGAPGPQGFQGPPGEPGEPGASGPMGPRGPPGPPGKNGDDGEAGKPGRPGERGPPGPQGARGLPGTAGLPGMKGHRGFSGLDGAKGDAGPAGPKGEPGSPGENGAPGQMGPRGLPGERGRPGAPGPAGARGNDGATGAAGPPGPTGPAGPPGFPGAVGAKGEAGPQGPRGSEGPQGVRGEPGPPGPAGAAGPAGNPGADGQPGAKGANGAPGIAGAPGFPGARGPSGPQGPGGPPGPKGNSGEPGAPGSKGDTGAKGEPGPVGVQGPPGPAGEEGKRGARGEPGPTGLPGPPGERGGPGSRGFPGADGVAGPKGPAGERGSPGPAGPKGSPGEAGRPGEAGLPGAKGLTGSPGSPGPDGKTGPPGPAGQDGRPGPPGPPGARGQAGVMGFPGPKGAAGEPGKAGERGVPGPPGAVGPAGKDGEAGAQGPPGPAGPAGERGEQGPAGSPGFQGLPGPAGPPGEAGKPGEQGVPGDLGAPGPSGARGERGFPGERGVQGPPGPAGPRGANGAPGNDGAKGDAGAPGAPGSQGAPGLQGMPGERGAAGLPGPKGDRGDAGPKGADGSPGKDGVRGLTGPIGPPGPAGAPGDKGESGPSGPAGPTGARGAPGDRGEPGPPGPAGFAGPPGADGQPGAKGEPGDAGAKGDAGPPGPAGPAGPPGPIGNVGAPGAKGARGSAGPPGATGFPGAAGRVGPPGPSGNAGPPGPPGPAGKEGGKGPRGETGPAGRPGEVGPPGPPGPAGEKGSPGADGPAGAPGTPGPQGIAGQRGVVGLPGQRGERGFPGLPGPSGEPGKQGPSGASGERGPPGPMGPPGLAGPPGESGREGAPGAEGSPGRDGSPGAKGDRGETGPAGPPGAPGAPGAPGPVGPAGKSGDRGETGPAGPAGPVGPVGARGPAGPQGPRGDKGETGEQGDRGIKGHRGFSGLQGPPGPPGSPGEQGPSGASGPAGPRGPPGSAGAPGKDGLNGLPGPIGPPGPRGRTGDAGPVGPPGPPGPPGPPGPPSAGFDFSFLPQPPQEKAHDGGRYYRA
T1 sequence (P08123 80-1119, chain 2 of 2): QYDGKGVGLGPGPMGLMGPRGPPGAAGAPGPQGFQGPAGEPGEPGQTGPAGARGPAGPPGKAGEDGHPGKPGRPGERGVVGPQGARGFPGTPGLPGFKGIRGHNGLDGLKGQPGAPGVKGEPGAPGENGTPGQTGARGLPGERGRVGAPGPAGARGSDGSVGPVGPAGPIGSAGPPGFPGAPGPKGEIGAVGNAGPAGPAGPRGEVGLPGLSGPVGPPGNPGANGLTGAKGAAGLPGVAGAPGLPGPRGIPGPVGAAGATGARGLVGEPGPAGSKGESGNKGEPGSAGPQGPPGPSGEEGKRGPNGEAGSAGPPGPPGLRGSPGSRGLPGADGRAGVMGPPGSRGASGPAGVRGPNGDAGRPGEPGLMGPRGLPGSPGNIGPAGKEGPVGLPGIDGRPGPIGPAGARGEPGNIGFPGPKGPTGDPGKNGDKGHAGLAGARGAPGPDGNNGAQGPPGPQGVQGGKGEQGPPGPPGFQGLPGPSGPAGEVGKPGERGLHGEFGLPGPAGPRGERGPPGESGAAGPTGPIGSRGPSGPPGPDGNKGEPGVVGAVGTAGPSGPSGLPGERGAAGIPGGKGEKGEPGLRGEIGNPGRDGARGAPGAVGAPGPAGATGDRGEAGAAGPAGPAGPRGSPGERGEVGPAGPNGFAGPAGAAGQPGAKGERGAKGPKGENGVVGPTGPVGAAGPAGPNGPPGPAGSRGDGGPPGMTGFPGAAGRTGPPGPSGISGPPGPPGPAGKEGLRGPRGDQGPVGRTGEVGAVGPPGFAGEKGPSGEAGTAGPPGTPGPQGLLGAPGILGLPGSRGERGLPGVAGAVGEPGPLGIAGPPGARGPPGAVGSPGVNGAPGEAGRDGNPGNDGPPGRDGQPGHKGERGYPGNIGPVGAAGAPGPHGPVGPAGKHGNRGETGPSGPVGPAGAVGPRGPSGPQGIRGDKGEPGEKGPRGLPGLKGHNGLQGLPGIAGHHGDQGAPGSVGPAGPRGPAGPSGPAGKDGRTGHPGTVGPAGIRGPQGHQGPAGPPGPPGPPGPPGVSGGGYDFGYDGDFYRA

- binding result [1]: no binding
- binding result [2]: no binding
- binding result [3]: no binding
B1: anti-neoepitope antibody 20A10 (antibody, IgG1, V domains shown)
VH: QIQLVQSGPELKEPGETVRISCKASGYTFTKYGINWVKQAPGKGLEWMAWINTYSGMTTYADDFKGRFAFSLETSANTAYLQINHLKNDDTATYFCARSLGYDYGGFAYWGQGTLVTVSA
VL: DVLLTQTPLSLPVSLGDQAFISCRSGQTLVHDNENTYFHWYLQKPGQSPKLLIYKISNRFSGVPDRFSGSGSGTDFTLKISRVEPEDLGIYFCSQNTHVPFTFGSGTKLEIKR
notes: also called HRP-labeled 20A10
